Target: the molecule itself
Experiment: SDS-PAGE under reducing and non-reducing conditions

B1: BMP-4 growth factor (GF) from the B2/4 construct (BMP-2 pro-domain and BMP-4 GF sequence) (ligand, human, UniProt P12644 293-408, looked up)
chain: SPKHHSQRARKKNKNCRRHSLYVDFSDVGWNDWIVAPPGYQAFYCHGDCPFPLADHLNSTNHAIVQTLVNSVNSSIPKACCVPTELSAISMLYLDEYDKVVLKNYQEMVVEGCGCR
modifications: two N-linked glycans
stoichiometry N: 2

— publication PMC8766921 (Molecular biotechnology, 2021)
